Experimental findings from PMC11840924, “Identifying Allosteric Hotspots in Mycobacterium tuberculosis cAMP Receptor Protein through Structural Homology” (Biochemistry, 2025) are described below.

Data set [1] concerns the target T1, CRPMTB wildtype (Mycobacterium tuberculosis, UniProt P9WMH3 1-224).
T1 sequence: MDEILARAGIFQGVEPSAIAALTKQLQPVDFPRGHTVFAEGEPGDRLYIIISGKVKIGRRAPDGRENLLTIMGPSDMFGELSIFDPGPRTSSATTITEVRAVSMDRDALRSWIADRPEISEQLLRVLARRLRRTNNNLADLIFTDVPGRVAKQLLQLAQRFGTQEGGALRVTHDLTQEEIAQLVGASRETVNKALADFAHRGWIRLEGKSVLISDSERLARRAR
The data set is described as follows: fluorescence anisotropy; no cAMP; specific 1:1 transition; 75 mM KCl, 50 mM HEPES, 1 mM EDTA, pH 7.6; […]; temperature not stated. The note with it: protein: recombinant; tags: His-tag (pET-3a); chain copies: 2; label: fluorescein; blunt. In general terms: Fluorescence polarisation rises when a labelled molecule tumbles more slowly, as on binding a larger partner.

For data set [2], the target named is T1, CRPMTB wildtype. The data set is described as follows: fluorescence anisotropy; 1 mM cAMP; specific 1:1 transition; 75 mM KCl, 50 mM HEPES, 1 mM EDTA, pH 7.6; […]; temperature not stated. The settings on record: protein: recombinant; tags: His-tag (pET-3a); chain copies: 2; label: fluorescein; blunt.

B1: serC32 full-site promoter (dsDNA)
DNA 1: GCGCGTAGTGTGAACAAGCTCACATGCAAGCC
DNA 2: GGCTTGCATGTGAGCTTGTTCACACTACGCGC
Take B1: the Ka was 1.87 ± 0.01 10^8 M-1 in the data set with CRPMTB wildtype [1] and 2.81 ± 0.01 10^8 M-1 in the data set with CRPMTB wildtype [2].
